Measurements: article PMC9579160

Legend:
[1] = target: His-tag-fused full-length wild-type CraCRY (C. reinhardtii animal-like cryptochrome) (C. reinhardtii); test: SEC; lit (blue light); inline SEC of the SAXS runs, Superdex 200, 50 mM HEPES pH 7.4, 150 mM NaCl, 5% glycerol, 25 °C, 2 to 10 mg/mL
[2] = target: His-tag-fused PHR domain of CraCRY (M1-A489) (C. reinhardtii); test: as above
[3] = target: Strep-tag-fused CraCRY::mCitrine (C. reinhardtii); test: single-molecule pull-down (TIRF colocalisation with photobleaching step counting); lit (blue light, 450 nm): Strep-tag-fused CraCRY::mCitrine tethered to the glass slide by streptavidin as bait, ROC15(GARP)::mCherry as prey
[4] = target: Strep-tag-fused CraCRY::mCitrine (C. reinhardtii); test: single-molecule photobleaching step counting; lit (blue light): photobleaching steps of CraCRY::mCitrine protein complexes counted by TIRF microscopy
[5] = target: Strep-tag-fused CraCRY::mCitrine (C. reinhardtii); test: single-molecule pull-down (TIRF colocalisation with photobleaching step counting); lit (blue light, 450 nm): Strep-tag-fused CraCRY::mCitrine tethered to the glass slide by streptavidin as bait, ROC15(GARP)::mCherry as prey; remark: listed apart in the source

“His-tag-fused full-length wild-type CraCRY (C. reinhardtii animal-like cryptochrome) (natural protein)” was tested, and the stoichiometry N [1] was 2.

“His-tag-fused PHR domain of CraCRY (M1-A489) (domain or fragment)” gave a stoichiometry N [2] of 2.

“Strep-tag-fused CraCRY::mCitrine (natural protein)” showed a dimer fraction without colocalized ROC15 [3] of 15.5% and a population of two-step bleaching [4] of 25.1%.

B1: ROC15(GARP)::mCherry (domain or fragment)
chain: MGEEYADDGTTRAVKRPRLVWTPQLHRKFESAVIKLGEDKAVPKTIMQEMNIDGLTRENVASHLQKYRM
B1 showed a fraction of interacting CraCRY (colocalization) [5] of 23.3% and a percentage of interaction between ROC15 and CraCRY monomers [5] of 25.1%.
